In patent US20090325290A1 (published 2009):
Residue numbers refer to the chain shown, from its start.

T1: human MHC class II DR protein (DRA*0101/DRB1*0401), purified from PRIESS cells (human, UniProt P01903 26-254; P01911 30-266, limits assumed)
T1 construct: mature; 'mature' is my reading; also called HLA-DR protein; MHCII
T1 MHC II alpha: not shown
T1 MHC II beta: not shown

T2: HLA-DR (DRA*0101/DRB1*0401) on the surface of PRIESS cells (human, UniProt P01903 26-254; P01911 30-266)
T2 MHC II alpha: not shown
T2 MHC II beta: not shown

B1: MS-GPC-1 (scFv form) (scFv, V domains shown)
VH: EVQLKESGPALVKPTQTLTLTCTFSGFSLSTSGVGVGWIRQPPGKALEWLALIDWDDDKYYSTSLKTRLTISKDTSKNQVVLTMTNMDPVDTATYYCARQYGHRGGFDHWGQGTLVTVSS
VL: DIVLTQPPSVSGAPGQRVTISCSGSSSNIGSNYVSWYQQLPGTAPKLLIYDNNQRPSGVPDRFSGSKSGTSASLAITGLQSEDEADYYCQSYDFNESVFGGGTKLTVLG
B2: MS-GPC-8-10-57 (IgG4 form) (antibody, V domains shown)
VH: B1 VH with E1Q, Q100S, Y101P, G102R, H103Y, G106A, H109Y
VL: B1 VL with S26E, S31N, S35Q, F94L, N95I, E96R, S97H
notes: Human IgG4 (constant region EMBL K01316), lambda constant region (EMBL M18645), from CHO-K1 cells; also called 1C7277
B3: MS-GPC-8-6-13 (IgG4 form) (antibody, V domains shown)
VH: B1 VH with E1Q, Q100S, Y101P, G102R, H103Y, G106A, H109Y
VL: B1 VL with S26E, S31A, S35T, F94Y, N95D, E96H, S97Y
notes: Human IgG4 (constant region EMBL K01316), lambda constant region (EMBL M18645), from CHO-K1 cells; also called 305D3
B4: MS-GPC-8-27-41 (IgG4 form) (antibody, V domains shown)
VH: B1 VH with E1Q, Q100S, Y101P, G102R, H103Y, G106A, H109Y
VL: B1 VL with S26E, S31N, S35Q, F94M, E96V, S97H
notes: Human IgG4 (constant region EMBL K01316), lambda constant region (EMBL M18645), from CHO-K1 cells; also called 1D09C3
B5: MS-GPC-8-10-57 (Fab form) (Fab, V domains shown)
VH: B1 VH with E1Q, Q100S, Y101P, G102R, H103Y, G106A, H109Y
VL: B1 VL with S26E, S31N, S35Q, F94L, N95I, E96R, S97H
notes: Fab: VH-CH1-FLAG-STREP tag II; also called 1C7277
B6: MS-GPC-8-6-47 (Fab form) (Fab, V domains shown)
VH: B1 VH with E1Q, Q100S, Y101P, G102R, H103Y, G106A, H109Y
VL: B1 VL with S26E, F94Y, N95D, E96H, S97Y
notes: Fab: VH-CH1-FLAG-STREP tag II
B7: MS-GPC-8-27-10 (Fab form) (Fab, V domains shown)
VH: B1 VH with E1Q, Q100S, Y101P, G102R, H103Y, G106A, H109Y
VL: B1 VL with S26E, S31A, S35N, F94M, E96V, S97H
notes: Fab: VH-CH1-FLAG-STREP tag II
B8: MS-GPC-8-6-13 (Fab form) (Fab, V domains shown)
VH: B1 VH with E1Q, Q100S, Y101P, G102R, H103Y, G106A, H109Y
VL: B1 VL with S26E, S31A, S35T, F94Y, N95D, E96H, S97Y
notes: Fab: VH-CH1-FLAG-STREP tag II; also called 305D3
B9: MS-GPC-8-27-7 (Fab form) (Fab, V domains shown)
VH: B1 VH with E1Q, Q100S, Y101P, G102R, H103Y, G106A, H109Y
VL: B1 VL with S26E, S31N, S35G, F94M, E96V, S97H
notes: Fab: VH-CH1-FLAG-STREP tag II
B10: MS-GPC-8-6 (Fab form) (Fab, V domains shown)
VH: B1 VH with E1Q, Q100S, Y101P, G102R, H103Y, G106A, H109Y
VL: B1 VL with F94Y, N95D, E96H, S97Y
notes: Fab: VH-CH1-FLAG-STREP tag II
B11: MS-GPC-8 (Fab form) (Fab, V domains shown)
VH: B1 VH with E1Q, Q100S, Y101P, G102R, H103Y, G106A, H109Y
VL: B1 VL with F94M, N95P, E96Q, S97A
notes: Fab: VH-CH1-FLAG-STREP tag II; also called B8-Fab; B8
B12: MS-GPC-8-27-41 (Fab form) (Fab, V domains shown)
VH: B1 VH with E1Q, Q100S, Y101P, G102R, H103Y, G106A, H109Y
VL: B1 VL with S26E, S31N, S35Q, F94M, E96V, S97H
notes: Fab: VH-CH1-FLAG-STREP tag II; also called 1D09C3
B13: MS-GPC-8-6-27 (Fab form) (Fab, V domains shown)
VH: B1 VH with E1Q, Q100S, Y101P, G102R, H103Y, G106A, H109Y
VL: B1 VL with S26D, S31A, S35T, F94Y, N95D, E96H, S97Y
notes: Fab: VH-CH1-FLAG-STREP tag II
B14: MS-GPC-1 (Fab form) (Fab, V domains shown)
VH: B1 VH with E1Q
VL: B1 VL
B15: MS-GPC-10 (Fab form) (Fab, V domains shown)
VH: B1 VH with E1Q, Y101L, G102H, H103Y, H109L
VL: B1 VL with F94L, N95T, E96M, S97G
B16: MS-GPC-8-6-2 (IgG form) (antibody, V domains shown)
VH: B1 VH with E1Q, Q100S, Y101P, G102R, H103Y, G106A, H109Y
VL: B1 VL with S26E, S35H, F94Y, N95D, E96H, S97Y
B17: MS-GPC-8-6 (IgG form) (antibody, V domains shown)
VH: B1 VH with E1Q, Q100S, Y101P, G102R, H103Y, G106A, H109Y
VL: B1 VL with F94Y, N95D, E96H, S97Y
B18: MS-GPC-8-6-2 (Fab form) (Fab, V domains shown)
VH: B1 VH with E1Q, Q100S, Y101P, G102R, H103Y, G106A, H109Y
VL: B1 VL with S26E, S35H, F94Y, N95D, E96H, S97Y
B19: MS-GPC-8-6-19 (Fab form) (Fab, V domains shown)
VH: B1 VH with E1Q, Q100S, Y101P, G102R, H103Y, G106A, H109Y
VL: B1 VL with S26E, S35A, F94Y, N95D, E96H, S97Y

Biological target: T1, human MHC class II DR protein …
Assay: SPR (BIAcore), scFv, chip density 500RU MHCII

Row | Binder | Kd [nM] | koff [s⁻¹] | kon [M⁻¹ s⁻¹]
1 | B1 | 1500 | 0.061 | 41300

Biological target: T1, human MHC class II DR protein …
Assay: BiaCore, IgG4
Procedure: The affinities for anti-HLA antibody fragments of the invention were measured as follows. All measurements were conducted in HBS buffer (20 mM HEPES, 150 mM NaCl, pH 7.4) at a flow rate of 20 μl/min at 25° C. on a BIAcore3000 instrument (Biacore AB, Sweden). MHC class II DR protein (prepared as example 1) was diluted in 100 mM sodium acetate pH 4.5 to a concentration of […], and coupled to a CM5 chip (Biacore AB) using standard EDC-NHS coupling chemistry with subsequent ethanolamine treatment as manufacturers directions. The coating density of MHCII was adjusted to between 500 and 4000 RU. Affinities were measured by injection of 5 different concentrations of the different antibodies and using the standard software of the Biacore instrument. Regeneration of the coupled surface was achieved using 10 mM glycine pH 2.3 and 7.5 mM NaOH.

Row | Binder | kon [M⁻¹ s⁻¹] | koff [s⁻¹]
2 | B2 | 11000 | 
3 | B3 |  | 0.00033
4 | B4 | 71000 | 

biological target: T3, HLA-DR on the human B-lymphoblastoid cell line LG-2 (human); assay: cell-based or functional assay

Row | Binder | EC50 of cell killing, LG2, IgG4 [nM] | EC50 of cell killing, LG2, cross-linked Fab as bivalent agent [nM]
5 | B2 | 1 | 
6 | B4 | 1.23 | 
7 | B5 |  | 7.2

biological target: T3, HLA-DR on the human B-lymphoblastoid …; assay: cell-based or functional assay; remark: another data set of the same source

Row | Binder | % killing of LG-2 cells, 50 nM, 4 h [%]
8 | B2 | 88
9 | B3 | 82
10 | B4 | 87

biological target: T3, HLA-DR on the human B-lymphoblastoid …; assay: FACS on LG-2 cells, competitor 1-1C4
Procedure: Subsequently murine antibodies were added and the murine antibodies were detected.
The whole staining procedure was performed on ice. 1×10⁷ cells of the human B-lymphoblastoid cell line LG-2 was preblocked for 20 min. in PBS containing 2% FCS and 35 μg/ml Guinea Pig IgG (“FACS-Buffer”). […] Subsequently, 4 ml of PBS were added to each vial, the vials were centrifuged at 300×g for 8 min, and the cell pellet resuspended in 50 μl FACS buffer containing a 1 to 25 dilution of a goat-anti-murine Ig-FITC conjugate at 20 μg/ml final concentration (BD Pharmingen, Torrey Pines, Calif., USA). Cells were incubated light-protected for 30 min. Afterwards, cells were washed with 4 ml PBS, centrifuged as above and resuspended in 500 μl PBS for analysis in the flow cytometer (FACS Calibur, BD Immunocytometry Systems, San Jose, Calif., USA).

Row | Binder | reduction of mean fluorescence intensity of the murine antibody [%]
11 | B2 | > 90
12 | B4 | > 90
13 | B5 | > 90

biological target: T4, human apotransferrin (human, UniProt P02787 20-698); assay: ELISA, antigen coated at 10 µg/well
T4 construct: negative control protein
Procedure: (§1) After washing in PBS the anti-human IgG F(ab)₂-peroxidase-conjugate at a 1:10,000 dilution in TBS (supplemented with 5% w/v non-fat dry-milk/0.05% v/v Tween 20) was added to each well for 1 h. Final washes were carried out in PBS followed the addition the substrate POD (Roche). Color-development was read at 370 nm in an ELISA-Reader.

Row | Binder | binding result
14 | B6 | no binding (tested: 100 ng/well)
15 | B7 | no binding (tested: 100 ng/well)
16 | B8 | no binding (tested: 100 ng/well)
17 | B9 | no binding (tested: 100 ng/well)
18 | B10 | no binding (tested: 100 ng/well)
19 | B11 | no binding (tested: 100 ng/well)
20 | B5 | no binding (tested: 100 ng/well)
21 | B12 | no binding (tested: 100 ng/well)
22 | B13 | no binding (tested: 100 ng/well)

biological target: T5, bovine serum albumine (bovine, UniProt P02769 25-607); assay: ELISA, antigen coated at 10 µg/well
T5 construct: negative control protein; also called BSA
Procedure: as §1

Row | Binder | binding result
23 | B7 | no binding (tested: 100 ng/well)
24 | B9 | no binding (tested: 100 ng/well)
25 | B10 | no binding (tested: 100 ng/well)
26 | B11 | no binding (tested: 100 ng/well)

Biological target: T2, HLA-DR (DRA*0101/DRB1*0401) on the …
Assay: cell-based or functional assay

Row | Binder | EC50 of cell killing, as bivalent cross-linked (Fab)dimer [nM] | EC50 of cell killing, cross-linked Fab, as monovalent fragment [nM]
27 | B14 | < 60 | < 120
28 | B15 | < 60 | < 120
29 | B11 | < 60 | < 120

biological target: human-mouse chimeric molecule DR-IE (human; mouse); assay: cell-based or functional assay

Row | Binder | IC50 for inhibition of T cell proliferation [nM]
30 | B2 | 11
31 | B4 | 20

biological target: HLA-DR antigen on the surface of HLA-DR positive cells (tumor cell lines other than PRIESS and LG-2, normal B … (human)); assay: cell-based or functional assay

Row | Binder | EC50 of cell killing, IgG form [nM]
32 | B2 | 1.2
33 | B4 | 1.2

Biological target: T1, human MHC class II DR protein …
Assay: SPR (BIAcore), Fab, 3 chips (500, 4000, 3000RU)

Row | Binder | Kd [nM] | kon [M⁻¹ s⁻¹]
34 | B10 | 8 | 120000

biological target: human-mouse chimeric molecule DR-IE (human; mouse); assay: cell-based or functional assay; remark: another data set of the same source

Row | Binder | IC50, inhibition of IL-2 secretion of T-Hyb 1 cells | Maximum inhibition(%) of IL-2 secretion [%]
35 | B6 | 2.6 nM ((Fab)/2) | 100
36 | B16 | 3.6 nM | 100
37 | B17 | 6.7 nM | 100
38 | B18 | 4.7 nM ((Fab)/2) | 100
39 | B7 | 7.3 nM ((Fab)/2) | 100
40 | B8 | 2.1 nM ((Fab)/2) | 100
41 | B2 | 0.31 nM | 100
42 | B3 | 0.42 nM | 100
43 | B9 | 5.9 nM ((Fab)/2) | 100
44 | B4 | 0.28 nM | 100
45 | B19 | 5.3 nM ((Fab)/2) | 100
46 | B10 | 20 nM ((Fab)/2) | 100
47 | B11 | 110 nM ((Fab)/2) | 100
48 | B5 | 2.9 nM ((Fab)/2) | 100
49 | B12 | 3.6 nM ((Fab)/2) | 100
50 | B13 | 3 nM ((Fab)/2) | 100
